B1: 356K: single substitution E356K in SEQ ID NO:2 (protein)
chain: MGPTPTATAAGAAVAAASAAEQAAFRLVGHRNFVRFNPRSDRFQTLAFHHVELWCADAASAAGRFSFALGVPLAARSDLSTGNSAHASLLLRSGSLSLLFTAPYAHGADAATAALPSFSAAAARRFAADHGLAVRAVALRVADAEDAFRASVAAGARPAFGPVDLGRGFRLAEVELYGDVVLRYVSYPDGAAGEPFLPGFEGVASPGAADYGLSRFDHIVGNVPELAPAAAYMAGFTGFHEFAEFTTEDVGTTESGLNSMALANNSENVLLPLNEPVHGTKRRSQIQTFLDHHGGPGVQHIALASDDVLRTLREMRARSAMGGFEFLPPPLSDYYDGVRRCAGDVLTEAQINECQKLGVMVDRDDQGVLLQIFTKPVGDRPTFFLEIIQRIGCMEKDEKGQEYQKGGCGGFGKGNFGQLFKSIEDYEKSLEAKQAAAAATAQGS
modifications: Zea mays variant form created by artificial means.
B2: 340K: single substitution R340K in SEQ ID NO:2 (protein)
chain: MGPTPTATAAGAAVAAASAAEQAAFRLVGHRNFVRFNPRSDRFQTLAFHHVELWCADAASAAGRFSFALGVPLAARSDLSTGNSAHASLLLRSGSLSLLFTAPYAHGADAATAALPSFSAAAARRFAADHGLAVRAVALRVADAEDAFRASVAAGARPAFGPVDLGRGFRLAEVELYGDVVLRYVSYPDGAAGEPFLPGFEGVASPGAADYGLSRFDHIVGNVPELAPAAAYMAGFTGFHEFAEFTTEDVGTTESGLNSMALANNSENVLLPLNEPVHGTKRRSQIQTFLDHHGGPGVQHIALASDDVLRTLREMRARSAMGGFEFLPPPLSDYYDGVRKCAGDVLTEAQINECQELGVMVDRDDQGVLLQIFTKPVGDRPTFFLEIIQRIGCMEKDEKGQEYQKGGCGGFGKGNFGQLFKSIEDYEKSLEAKQAAAAATAQGS
modifications: Zea mays variant form created by artificial means.
B3: 387L: single substitution I387L in SEQ ID NO:2 (protein)
chain: MGPTPTATAAGAAVAAASAAEQAAFRLVGHRNFVRFNPRSDRFQTLAFHHVELWCADAASAAGRFSFALGVPLAARSDLSTGNSAHASLLLRSGSLSLLFTAPYAHGADAATAALPSFSAAAARRFAADHGLAVRAVALRVADAEDAFRASVAAGARPAFGPVDLGRGFRLAEVELYGDVVLRYVSYPDGAAGEPFLPGFEGVASPGAADYGLSRFDHIVGNVPELAPAAAYMAGFTGFHEFAEFTTEDVGTTESGLNSMALANNSENVLLPLNEPVHGTKRRSQIQTFLDHHGGPGVQHIALASDDVLRTLREMRARSAMGGFEFLPPPLSDYYDGVRRCAGDVLTEAQINECQELGVMVDRDDQGVLLQIFTKPVGDRPTFFLELIQRIGCMEKDEKGQEYQKGGCGGFGKGNFGQLFKSIEDYEKSLEAKQAAAAATAQGS
modifications: Zea mays variant form created by artificial means.
B4: 211L: single substitution Y211L in SEQ ID NO:2 (protein)
chain: MGPTPTATAAGAAVAAASAAEQAAFRLVGHRNFVRFNPRSDRFQTLAFHHVELWCADAASAAGRFSFALGVPLAARSDLSTGNSAHASLLLRSGSLSLLFTAPYAHGADAATAALPSFSAAAARRFAADHGLAVRAVALRVADAEDAFRASVAAGARPAFGPVDLGRGFRLAEVELYGDVVLRYVSYPDGAAGEPFLPGFEGVASPGAADLGLSRFDHIVGNVPELAPAAAYMAGFTGFHEFAEFTTEDVGTTESGLNSMALANNSENVLLPLNEPVHGTKRRSQIQTFLDHHGGPGVQHIALASDDVLRTLREMRARSAMGGFEFLPPPLSDYYDGVRRCAGDVLTEAQINECQELGVMVDRDDQGVLLQIFTKPVGDRPTFFLEIIQRIGCMEKDEKGQEYQKGGCGGFGKGNFGQLFKSIEDYEKSLEAKQAAAAATAQGS
modifications: Zea mays variant form created by artificial means.

Columns and labels:
Type in all cases: biochemical, Z. mays
[1] = tested on: 4-hydroxyphenylpyruvate dioxygenase (HPPD); assay: OFF rate ratio: release of inhibitor from pre-formed enzyme-inhibitor complex; conditions: Table 5; tembotrione
Procedure, shortened: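 HPPD (7.2 μM) pre-incubated 1 h at RT with inhibitor (8 μM), then diluted into 25 mM Hepes pH 7, 2 mM ascorbate, 10 μM FeSO4, 100 μM HPP, 50 nM HGD; A320 followed 12 min. Ratio = steady-state rate with inhibitor over initial rate of inhibitor-free enzyme.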

[2] = tested on: 4-hydroxyphenylpyruvate dioxygenase (HPPD); assay: ON rate ratio: HPPD reaction rate with vs without inhibitor in the 70 to 90 second interval; conditions: Table 5; tembotrione
Procedure, shortened: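 Time courses of HPPD reactions, 60 or 120 nM enzyme with 100 μM HPP substrate, run with and without 4 μM inhibitor (e.g. mesotrione, tembotrione). Value is the rate with inhibitor over rate without, taken over 70–90 s; higher ratio reflects slower kON.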

[3] = tested on: 4-hydroxyphenylpyruvate dioxygenase (HPPD); assay: Insensitivity parameter (ON × OFF) and trait fitness (ON × OFF × kcat/KM or × kcat); conditions: for ON × OFF × kcat, Value / ON × OFF × kcat, Fold vs wt / ON × OFF, fold vs wt / ON × OFF (parameters with tembotrione): Table 5, tembotrione; for ON × OFF × kcat, Fold vs wt / ON × OFF, fold vs wt: fold vs maize wild type HPPD; for ON × OFF (parameters with tembotrione): insensitivity parameter
Procedure, shortened: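 Calculated, not measured directly: ON rate ratio × OFF rate ratio gives an insensitivity parameter serving as a KD surrogate.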

[4] = tested on: 4-hydroxyphenylpyruvate dioxygenase (HPPD); assay: HPPD activity coupled assay with HGD; substrate saturation kinetic parameters (kcat, KM); conditions: Table 6; for kcat: single substitutions in SEQ ID NO:2
Experimental: Wild type and shuffled variant genes were cloned into pVER7062, a modified version of pET24a(+)(Novagen), which places six histidine residues at the N-terminus of the expressed protein. Vectors were electroporated into E. coli host strain BL21(DE3). Cells were grown at 30 C in rich medium such as 2×YT containing the selection antibiotic, kanamycin. At a density of about 0.6 OD600, IPTG was added to 0.2 mM, the temperature was reduced to 16 C and growth continued for another 24 hrs. Cells were harvested by centrifugation and stored at −80 C. Cell pellets were lysed in BPER (Pierce) protein extraction reagent containing 0.2 mg/ml lysozyme, 1 mM dithiothreitol, protease inhibitor cocktail (Sigma, bacterial cocktail) and endonuclease. Insoluble cellular debris was removed by centrifugation. HPPD protein was purified from the soluble protein solution by affinity chromatography on the nickel form of nitrilotriacetic acid (Ni-NTA) resin (Qiagen). Protein concentrations were determined by the Bradford method, as supplied by Bio-Rad.
HPPD catalyzes the conversion of 4-hydroxyphenylpyruvate (HPP) to homogentisate (FIG. 17). […] However, the product of the ensuing reaction in tyrosine metabolism, maleylacetoacetate, absorbs strongly at 320 nm. Furthermore, the enzyme catalyzing that reaction is also a dioxygenase having similar mechanism and buffer requirements as HPPD, making homogentisate dioxygenase (HGD) an ideal partner in a coupled assay, as shown.
The HDG gene from Pseudomonas aeruginosa (Amaya (2004) Arch Biochem Biophys 421, 135-142) was cloned into pVER7062 and electroporated into E. coli strain BL21(DE3). The enzyme was produced by methods similar to those described for HPPD. The purified enzyme has a KM for homogentisate of 23 μM and a kcat of 100/sec, properties highly suited for instantly converting the homogentisate produced by HPPD to maleylacetoacetate.
HPPD activity was measured by placing an aliquot (e.g., 6 μl) of the substrate HPP at 50-fold the desired final concentration into the wells of a low UV-absorbing assay plate. Reactions were started by adding a mixture (e.g., 294 μl) containing 25 mM Hepes, pH 7, 2 mM ascorbate, 10 μM FeSO4, 1 to 100 μM HPP, 50 nM HGD and 5 to 240 nM HPPD. Absorbance at 320 nm was monitored continuously in a plate-reading spectrophotometer (Spectramax, Molecular Devices).
The catalytic performance of wild-type HPPD and variants generated by shuffling was assessed by determining the substrate saturation kinetic parameters. The Michaelis-Menten kinetics protocol of the Spectramax software was customized for HPP concentrations ranging from 3.33 μM to 100 μM. Reaction rates were measured as described above for each concentration of HPP. The software returns values of KM and Vmax using the Lineweaver-Burke transformation of the Michaelis-Menten equation.

[5] = tested on: 4-hydroxyphenylpyruvate dioxygenase (HPPD); assay: Estimate of kcat from initial rate at saturating hydroxyphenylpyruvate without inhibitor (ON rate ratio assay); conditions: Table 5; single substitutions in Round 7 variant 9070 (SEQ ID NO:2); estimate from initial rate at saturating hydroxyphenylpyruvate without inhibitor
Procedure, shortened: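 Reactions used 60 or 120 nM HPPD and saturating 100 μM hydroxyphenylpyruvate without inhibitor. kcat was estimated from the initial rate at the known enzyme concentration.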

[6] = DKN (diketonitrile form of isoxaflutole)
[7] = DKN (isoxaflutole diketonitrile)

Molecule | OFF ratio (parameters with tembotrione) [1] | ON ratio (parameters with tembotrione) [2] | Insensitivity parameter, ON × OFF [3, 6] | ON × OFF × kcat/km fold vs Round 7, variant 9070 [3, 7] | Insensitivity parameter, ON × OFF ([3]; Mesotrione, Table 6) | ON × OFF × kcat/km fold vs Round 7, variant 9070 ([3]; Sulco (sulcotrione)) | Insensitivity parameter, ON × OFF ([3]; Sulcotrione) | ON × OFF × kcat, Value [3] | ON × OFF × kcat, Fold vs wt [3] | ON × OFF, fold vs wt [3] | ON × OFF (parameters with tembotrione) [3] | Insensitivity parameter, ON × OFF ([3]; Tembotrione) | ON × OFF × kcat/km fold vs Round 7, variant 9070 ([3]; Topra (topramezone)) | Insensitivity parameter, ON × OFF ([3]; Topramezon) | ON × OFF × kcat/km fold vs Round 7, variant 9070 ([3]; meso (mesotrione)) | ON × OFF × kcat/km fold vs Round 7, variant 9070 ([3]; tembo (tembotrione)) | Km [4] [µM] | kcat [4] [s⁻¹] | kcat [5] [s⁻¹]
B1 | 0.21 | 0.75 | 0.25 | 1.1 | 0.48 | 1.1 | 0.55 | 6.18 | 5.78 | 31.2 | 0.16 | 0.18 | 0.9 | 0.23 | 1.2 | 1.2 | 2.6 | 1.1 | 0.647
B2 | 0.20 | 0.75 | 0.23 | 2.2 | 0.44 | 1.3 | 0.54 | 6.56 | 6.13 | 28.7 | 0.15 | 0.16 | 1.1 | 0.22 | 1.3 | 1.2 | 2.41 | 1.22 | 0.745
B3 | 0.19 | 0.75 | 0.26 | 1.6 | 0.46 | 1.3 | 0.56 | 4.58 | 4.28 | 27.0 | 0.14 | 0.15 | 1.0 | 0.21 | 1.3 | 1.1 | 2.46 | 1.24 | 0.555
B4 | 0.17 | 0.77 | 0.25 | 1.1 | 0.37 | 0.9 | 0.47 | 4.72 | 4.41 | 25.0 | 0.13 | 0.22 | 1.1 | 0.27 | 0.9 | 1.1 | 3.2 | 1.29 | 0.615

From US11015206B2, “Compositions and methods comprising sequences having hydroxyphenylpyruvate dioxygenase (HPPD) activity” (PIONEER HI-BRED INTERNATIONAL, INC., priority 2014, dated 2021)
